Reference: the nanobody polyreactivity screen of Harvey et al. (2022)

Experiment: yeast display, Sf9 membrane polyspecificity reagent, FACS + sequencing; frameworks hold sequencing errors
Method in brief: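 A synthetic nanobody library was expressed on Saccharomyces cerevisiae BJ5465 by galactose induction for 36–48 hours. The library was stained for 1 hour at 4 °C with 10% biotinylated, detergent-solubilized Sf9 membrane reagent and enriched with streptavidin microbeads before FACS. Low and high (top ~1%) gates were set on anti-HA fluorescence for expression and streptavidin fluorescence for reagent binding, and each polyreactivity label reflects the gate of origin.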

| Sequence | polyreactivity (PSR sort gate) |
| --- | --- |
| QVQLVESGGGLVQAGGSLRLSCAASGSTFTINVMGWYRQAPGKERELVAAINGGGRTNYADYVKGRFTISRDNAKNTVYLQMNSLKPEDTAVYYCAADCYTYWFYQLIPDYDYWGQGTQVTVSS | low polyreactivity |
| QVQLVESGGGLVQAGGSLRLSCAASGSTFTINVMGWYRQSPGKERELVAAINGGGRTNYADSVKGRFTISRDNAKNTVYLQMNSLKPEDTAVYYCAADGLSNVRQMDYWGQGTQVTVSS | low polyreactivity |
| QVQLVESGGGLVQAGGSLRLSCAASGSTFTINVMGWYSQAPGKEREVVAAINGGGRTNYADSVKGRFTISRDHAKNTVNLQMNSLKPEDTAVYYCAADGLSNVRQMDYWGQGTQVTVSS | low polyreactivity |
| QVQLVESGGGLVQAGGSLRLSCAASGSTFTIYAMGWYRPAPGKERELVAAIDWSGGGTDYADSVKGRFTISRDNAKNTVYLQMNSLKPEDTAVYYCAAETFYDYGGYDYWGQGTQVTVSS | low polyreactivity |
| QVQLVESGGGLVQAGGSLRLSCAASGSTFTKNVMGWYRQAPGKERELVAAISSGGRTNYADSVKGRFTISRDNAKNTVYLQMNSLKPEDTAVYYCAADVGYFKSDYWGQGTQVTVSS | low polyreactivity |
| QVQLVESGGGLVQAGGSLRLSCAASGSTFTKYAMGWYRKAPGKERELVAAITYSGGRTYYADSVKGRFTISRDNAKNTVYLQMNSLKPEDTAVYYCAAATYAGKPMEYWGQGTQVTVSS | high polyreactivity |
| QVQLVESGGGLVQAGGSLRLSCAASGSTFTLYAMGWYRQAPGQERELVAAIRRGGSTNYADSVKGRFTISRDNAKNPVYLQMNSLKPEDTAVYYSAADTYTSRSRYSGSGGYDYWGQGTQVTVSS | low polyreactivity |
| QVQLVESGGGLVQAGGSLRLSCAASGSTFTPNDMGWYRQAPGKERELVAAINSGGGRTYYADSVKGRFTISRDNAKNTVYLQMNSLKPEDTAVYYCAKRLYISGYGYGYWGQGTQVTVSS | high polyreactivity |
| QVQLVESGGGLVQAGGSLRLSCAASGSTFTPYAMGWHRQAPGKERELVAAITIRGGSTYYADSVKGRFTISRDNAKNTVYLQMYSLKPEDTAVYYCAREYIFSVYDYSTSYYYWGQGTQVTVSS | low polyreactivity |
| QVQLVESGGGLVQAGGSLRLSCAASGSTFTQYAMGWYRQAPGKERELVAAINSRGDSTYYADSVKGRFTISRDNAKNTVYLQMNSLKPEDTAVYYCAATGYLSYYQQDLWLEYYYWGQGTQVTVSS | low polyreactivity |
| QVQLVESGGGLVQAGGSLRLSCAASGSTFTQYAMGWYRQAPGKERELVATISRRGTRTYYADSVKGRFTISRDNAKNTVYLQMNSLKPEDTAVYYCAADNGPYRTIGYDSWGQGTQVTVSS | high polyreactivity |
| QVQLVESGGGLVQAGGSLRLSCAASGSTFTQYVMGWYRQAPGKERELVAAISDSGSTYYADSVKGRFTISRDNAKNTVYLQMNSLKPEDTAVYYCNADDVEFYYGYGYLDYDYWGQGTQVTVSS | low polyreactivity |
| QVQLVESGGGLVQAGGSLRLSCAASGSTFTRNAMGWYRQAPGKERELVARISRSGGSTYYADSVKGRFTISRDNAKNSVYLQMNSLKPEDTAVYDCNKDWYPRYPYVKGERDYWGEGTQVTVSS | high polyreactivity |
| QVQLVESGGGLVQAGGSLRLSCAASGSTFTRNAMGWYRQAPGKERELVATISSGGSTNYADSVKGRFTISRDNAKNTVYLQMNSLKPEDTAVYYCAKRSLYRYYYWGQGTQVTVSS | high polyreactivity |
| QVQLVESGGGLVQAGGSLRLSCAASGSTFTRYAMGWYRPAPGKERELVAAISLSGGDTYYADSVKGRFTISRDNAKNTVYLQMNSLKPEDTAVYYCAARWGYRGYSYEYWGQGTQVTVSS | high polyreactivity |
| QVQLVESGGGLVQAGGSLRLSCAASGSTFTRYAMGWYRQAPGKERELVAAISRGGSTNYADSVKGRFTISRDNAKNTVYLQMNSLKPEDTAVYYCAKGSNRSRGYYWGQGTQVTVSS | high polyreactivity |
| QVQLVESGGGLVQAGGSLRLSCAASGSTFTRYAMGWYRQAPGKERELVAAISSSAGRTYYADSVKGRFTISRDNAKNTVYLQMNSLKPEDTAVYYCAATRVYAGAQYDYWGQGTQVTVSS | high polyreactivity |
